Test results reported in patent US20110123676A1, “ENZYMATIC TREATMENT OF A PROTEINACEOUS SUBSTRATE BY ENZYMATIC REMOVAL OF FREE THIOLS” (priority 2008, published 2011).
Entries after “also recorded” stand apart in the source; their conditions may differ.

Key:
myosin [1] = test: SDS-PAGE analysis of protein cross-linking, pork extract; assay type: biochemical; details: for protein cross-linking (SDS-PAGE): treatment with the named enzyme alone, vs reference
Description: (§1) Protein Extractions: • 1. Brine was made using 2% NaCl and 0.3% STPP • 2. 20 g portions of meat were placed in 250 ml baffled shake flasks • 3. 60 ml of brine were added to each shake flask. • 4. The shake flasks were placed on a rotary shaker (Certomat R, Braun Int.); 120 min at room temperature and 180 rpm • 5. The meat-brine suspension was centrifuged for 60 min at 10000 g and 5° C. • 6. The fat particles were removed by filtering the supernatant through a 0.8 mm grid • 7. The meat-protein extract (supernatant) was stored at −18° C. Dialysis was carried out in Slide-A-Lyzer Dialysis Cassette from Pierce (Order nr: 66810). The dialysis was carried out at 4° C. overnight with one shift of dialysis buffer. Sample Preparation/Enzyme Treatment for SDS-PAGE Analysis Enzyme treatment of the protein extracts prior to SDS-PAGE analysis was done as follows: Tyrosinase was added to a final concentration of 15.5 nkat/ml extract (corresponding to 0.015 mg tyrosinase per ml extract) and incubated for 60 min at 40° C. TGase was added to a final concentration of 2.5 nkat/ml extract (corresponding to 0.015 mg TGase pr. ml extract) and incubated for 60 min at 40° C. sulfhydryl oxidase was added to a final concentration of 0.0033 (low sulfhydryl oxidase) or 0.033 (high sulfhydryl oxidase) nkat/ml. It was always added prior to or simultaneously with other enzyme treatment. If added prior to other enzyme treatment, an incubation time of 60 min at room temperature was applied. SDS-Page Analysis: SDS-PAGE was carried out on Pre-cast Novex Bis-Tris gels (Invitrogen, Carlsbad Calif., USA) according to manufacturers' protocol. For non-reducing SDS-PAGE, DTT was left out of the sample buffer.

tyrosinase = test: Tyrosinase spot assay and test of inhibition (skimmed milk); assay type: biochemical, Hypocrea jecorina; details: activity spot test, cysteine and enzyme in contact about 1 min before adding the substrate
Description: Tyrosinase Spot Assay and Test of Inhibition Spot assay of tyrosinase activity was determined by adding 11 nkat of tyrosinase to 1 ml of skimmed milk. Red colour formation within 5-10 seconds is an indication of high of tyrosinase activity. To test for tyrosinase inhibition, either the inhibitor is mixed with tyrosinase before addition to the milk or the inhibitor is added to the milk prior to tyrosinase addition. The inhibitors tested were free cysteine at final concentrations of 1 or 0.1 mM or meat extracts diluted 10 times in the final sample.

myosin [2] = test: SDS-PAGE analysis of protein cross-linking, chicken extract; assay type: biochemical; details: treatment with the named enzyme alone, vs reference
Description: as §1, with “C.” for “C. Dialysis was carried out in Slide-A-Lyzer Dialysis Cassette from Pierce (Order nr: 66810). The dialysis was carried out at 4° C. overnight with one shift of dialysis buffer.”, “SDS-Page Analysis: SDS-PAGE was carried out on Pre-cast Novex Bis-Tris gels (Invitrogen, Carlsbad Calif., USA) according to manufacturers' protocol. For non-reducing SDS-PAGE, DTT was left out of the sample buffer.” left out

[3] = according to supplier; cited from earlier work
myosin [4] = test: SDS-PAGE analysis of protein cross-linking, turkey extract; assay type: biochemical; details: treatment with the named enzyme alone, vs reference
Description: as §1, with “C.” for “C. Dialysis was carried out in Slide-A-Lyzer Dialysis Cassette from Pierce (Order nr: 66810). The dialysis was carried out at 4° C. overnight with one shift of dialysis buffer.”, “SDS-Page Analysis: SDS-PAGE was carried out on Pre-cast Novex Bis-Tris gels (Invitrogen, Carlsbad Calif., USA) according to manufacturers' protocol. For non-reducing SDS-PAGE, DTT was left out of the sample buffer.” left out

myosin [5] = test: SDS-PAGE analysis of protein cross-linking, lamb extract; assay type: biochemical; details: treatment with the named enzyme alone, vs reference
Description: as §1, with “C.” for “C. Dialysis was carried out in Slide-A-Lyzer Dialysis Cassette from Pierce (Order nr: 66810). The dialysis was carried out at 4° C. overnight with one shift of dialysis buffer.”, “SDS-Page Analysis: SDS-PAGE was carried out on Pre-cast Novex Bis-Tris gels (Invitrogen, Carlsbad Calif., USA) according to manufacturers' protocol. For non-reducing SDS-PAGE, DTT was left out of the sample buffer.” left out

myosin [6] = test: SDS-PAGE analysis of protein cross-linking, cod extract; assay type: biochemical; details: treatment with the named enzyme alone, vs reference
Description: as §1, with “C.” for “C. Dialysis was carried out in Slide-A-Lyzer Dialysis Cassette from Pierce (Order nr: 66810). The dialysis was carried out at 4° C. overnight with one shift of dialysis buffer.”, “SDS-Page Analysis: SDS-PAGE was carried out on Pre-cast Novex Bis-Tris gels (Invitrogen, Carlsbad Calif., USA) according to manufacturers' protocol. For non-reducing SDS-PAGE, DTT was left out of the sample buffer.” left out

myosin [7] = test: SDS-PAGE analysis of protein cross-linking, beef extract; assay type: biochemical; details: for protein cross-linking (SDS-PAGE): treatment with the named enzyme alone, vs reference
Description: as §1, with “C.” for “C. Dialysis was carried out in Slide-A-Lyzer Dialysis Cassette from Pierce (Order nr: 66810). The dialysis was carried out at 4° C. overnight with one shift of dialysis buffer.”

[8] = Tyrosinase activity (nkat); assay type: biochemical; details: enzyme used in the examples
Description: One unit of tyrosinase activity—1 nkat is defined as the amount of enzyme that converts 1 nmol of L-DOPA into DOPA-quinone pr. second at pH 7 and 25° C.

[9] = according to supplier; cited from earlier work; remark: listed apart in the source

Molecule | protein cross-linking (SDS-PAGE) (myosin [2]) | protein cross-linking (SDS-PAGE) (myosin [4]) | protein cross-linking (SDS-PAGE) (myosin [5]) | protein cross-linking (SDS-PAGE) (myosin [1]; pork extract) | protein cross-linking (SDS-PAGE) (myosin [6]) | protein cross-linking (SDS-PAGE) (myosin [7]) | also measured
[Cu] [copper] |  |  |  |  |  |  | effect of extra copper on tyrosinase activity (myosin [1]; pork extract, results not shown): did not seem to enhance tyrosinase activity
O=P(O)(O)OP(=O)(O)OP(=O)(O)O [STPP, Sodium tripolyphosphate] |  |  |  |  |  |  | effect of removing STPP on tyrosinase cross-linking (SDS-PAGE) (myosin [1]; pork extract dialysed against a solution free of STPP): no further efficiency of tyrosinase cross-linking was observed
N[C@@H](CS)C(=O)O [cysteine] |  |  |  |  |  |  | cysteine concentration giving inhibition of the tyrosinase (tyrosinase): above 10 μM; cysteine concentration giving inhibition of the tyrosinase (tyrosinase; listed as free cysteine): about 10 μM
TGase: TGase (Activa MP; Ajinomoto), well-known protein cross-linking enzyme used as positive reference (protein, UniProt P81453 77-407, looked up) Protein-glutamine …: DSDDRVTPPAEPLDRMPDPYRPSYGRAETVVNNYIRKWQQVYSHRDGRKQQMTEEQREWLSYGCVGVTWVNSGQYPTNRLAFASFDEDRFKNELKNGRPRSGETRAEFEGRVAKESFDEEKGFQRAREVASVMNRALENAHDESAYLDNLKKELANGNDALRNEDARSPFYSALRNTPSFKERNGGNHDPSRMKAVIYSKHFWSGQDRSSSADKRKYGDPDAFRPAPGTGLVDMSRDRNIPRSPTSPGEGFVNFDYGWFGAQTEADADKTVWTHGNHYHAPNGSLGAMHVYESKFRNWSEGYSDFDRGAYVITFIPKSWNTAPDKVKQGWP | efficient | efficient | efficient | efficient | efficient | efficient | TGase activity [3]: 1666 nkat/g
TrTyr2: Tyrosinase (TrTyr2; VTT, Finland); tyrosinase 2 of Hypocrea jecorina, derived from SEQ ID NO 2 (protein, listed as Hypocrea jecorina, signal peptide cleaved) MLLSASLSALALATVSLAQGTTHIPVTGVPVSPGAAVPLRQNINDLAKSGPQWDLYVQAMYNMSKMDSHDPYSFFQIAGIHGAPYIEYNKAGAKSGDGWLGYCPHGEDLFISWHRPYVLLFEQALVSVAKGIANSYPPSVRAKYQAAAASLRAPYWDWAADSSVPAVTVPQTLKINVPSGSSTKTVDYTNPLKTYYFPRMSLTGSYGEFTGGGNDHTVRCAASKQSYPATANSNLAARPYKSWIYDVLTNSQNFADFASTSGPGINVEQIHNAIHWDGACGSQFLAPDYSGFDPLFFMHHAQVDRMWAFWEAIMPSSPLFTASYKGQSRFNSKSGSTITPDSPLQPFYQANGKFHTSNTVKSIQGMGYSYQGIEYWQKSQAQIKSSVTTIINQLYGPNSGKKRNAPRDFLSDIVTDVENLIKTRYFAKISVNVTEVTVRPAEINVYVGGQKAGSLIVMKLPAEGTVNGGFTIDNPMQSILHGGLRNAVQAFTEDIEVEILSKDGQAIPLETVPSLSIDLEVANVTLPSALDQLPKYGQRSRHRAKAAQRGHRFAVPHIPPL | varying degrees of myosin-band fading; also recorded: least extensive fading of the myosin band | varying degrees of myosin-band fading | varying degrees of myosin-band fading; also recorded: least extensive fading of the myosin band | no cross-linking seems to take place | the myosin band disappears entirely; also recorded: fading of the myosin band is most pronounced | indicating protein cross-linking | specific activity [8]: about 300 nkat/mg; tyrosinase activity after dialysis of extract (SDS-PAGE) (myosin [1]; pork extract dialysed against the same solution as used for extraction): rendered the tyrosinase active; tyrosinase activity after dilution of extract (SDS-PAGE) (myosin [1]; ten times dilution of the pork extract prior to tyrosinase treatment, results not shown): rendered the enzyme active; tyrosinase activity [9]: 1067 nkat/ml; tyrosinase cross-linking with or without sulfhydryl oxidase-treatment (SDS-PAGE) (myosin [7]): able to cross-link proteins
